US20240239898A1 (published 2024)
Where a chain is given by its changes, count along the chain named. In names and notes the source's numbering stands. Blank lines part the entries; values can stand above or below the molecule they belong to.

Columns and labels:
[1] = biological target: recombinant human FcRn (heterodimer of FcRn heavy chain and beta2-microglobulin) (human) (UniProt P55899); experiment: BLI (Octet), biotinylated human FcRn on streptavidin sensors, pH 6, 1:1 model
[2] = biological target: T1, recombinant human FcRn (heterodimer of FcRn heavy chain and beta2-microglobulin) (human, UniProt P55899 24-297; P61769 21-119, limits assumed, biotinylated for the Octet assay (site not stated)); experiment: as above
T1 construct: In-house recombinant heterodimeric FcRn; captured as biotinylated protein on streptavidin sensors for BLI; also called hFcRn; Fc neonatal receptor
Description: (§1) Octet binding analysis. […] Biotinylated FcRn at 1 μg/mL in PBS buffer (pH 7.4) or 100 mM MES buffer (pH 6.0), with 3 mg/mL bovine serum albumin, 0.05% (vol/vol) and Tween 20 (1× Kinetics Buffer; ForteBio), were captured on streptavidin biosensors (ForteBio). The loaded biosensors were washed with assay buffer to remove any unbound protein, followed by association and dissociation measurements with serial dilutions of the different Fc variants or Fc fusion constructs. Octet software (version 7.2) was used to calculate kinetic parameters (kₒₙ and koff) and apparent affinities (KD) from a nonlinear fit based on the 1:1 binding kinetic model of the data, with the equation

[3] = biological target: T1, recombinant human FcRn (heterodimer of …); experiment: BLI (Octet) on recombinant FcRn, pH 6 against neutral pH
Description: as §1

Kd [1]: 370 nM
Molecule: MFc1 (C4), monomeric IgG4 Fc variant with YTE mutations (from UniProt P01861 111-327)

Kd [2]: 3560 nM
B1: MFc2 (C4n), monomeric IgG4 Fc variant with no YTE mutations (other)
chain: GPSVFLFPPKPKDTLMISRTPEVTCVVVDVSQEDPEVQFNWYVDGVEVHNAKTKPREEQFNSTYRVVSVLTVLHQDWLNGKEYKCKVSNKGLPSSIEKTISKAKGQPREPQVYTFPPSQEEMTKNQVSLRCLVKGFYPSDIAVEWESNGQPENNYKTTKPVLDSDGSFRLESRLTVDKSRWQEGNVFSCSVMHEALHNHYTQKSLSLSL

Kd [2]: 330 nM
fold decrease from pH 6 binding to neutral pH binding [3]: ~50 fold
B2: MFc3, the S354E point mutant of MFc1 (other)
chain: B1 chain with M16Y, S18T, T20E, S118E

Kd [2]: 5 nM
fold decrease from pH 6 binding to neutral pH binding [3]: ~50 fold
B3: MFc4 (T1-S354E), monomeric IgG4 Fc variant (other)
chain: GPSVFLFPPKPKDTLMISRTPEVTCVVVDVSQEDPEVQFNWYVDGVEVHNAKTKPREEQFNSTYRVVSVLTVLHQDWLNGKEYKCKVSNKGLPSSIEKTISKAKGQPREPQVYTFPPEQEEMTKNQVSLRCLVKGFYPSDIAVEWESNGQPENNYKTTKPVLDSDGSFRLESRLTVDKSRWQEGNVFSCSVMHEACSYHLCKSLSLSL
notes: Engineered IgG4 CH2-CH3 with the CH3 monomer set, S354E and the half-life mutation set around residues 432-438 in place of YTE
